Literature values as cited in paper PMC3043165.

Experiments:
[1] = molecular target: integrin αIIbβ3 (Homo sapiens) (UniProt P08514)
[2] = molecular target: integrin αvβ5 (Homo sapiens) (UniProt P06756)
integrin αvβ5 (Homo sapiens), sequence (P06756 31-992, chain 1 of 2): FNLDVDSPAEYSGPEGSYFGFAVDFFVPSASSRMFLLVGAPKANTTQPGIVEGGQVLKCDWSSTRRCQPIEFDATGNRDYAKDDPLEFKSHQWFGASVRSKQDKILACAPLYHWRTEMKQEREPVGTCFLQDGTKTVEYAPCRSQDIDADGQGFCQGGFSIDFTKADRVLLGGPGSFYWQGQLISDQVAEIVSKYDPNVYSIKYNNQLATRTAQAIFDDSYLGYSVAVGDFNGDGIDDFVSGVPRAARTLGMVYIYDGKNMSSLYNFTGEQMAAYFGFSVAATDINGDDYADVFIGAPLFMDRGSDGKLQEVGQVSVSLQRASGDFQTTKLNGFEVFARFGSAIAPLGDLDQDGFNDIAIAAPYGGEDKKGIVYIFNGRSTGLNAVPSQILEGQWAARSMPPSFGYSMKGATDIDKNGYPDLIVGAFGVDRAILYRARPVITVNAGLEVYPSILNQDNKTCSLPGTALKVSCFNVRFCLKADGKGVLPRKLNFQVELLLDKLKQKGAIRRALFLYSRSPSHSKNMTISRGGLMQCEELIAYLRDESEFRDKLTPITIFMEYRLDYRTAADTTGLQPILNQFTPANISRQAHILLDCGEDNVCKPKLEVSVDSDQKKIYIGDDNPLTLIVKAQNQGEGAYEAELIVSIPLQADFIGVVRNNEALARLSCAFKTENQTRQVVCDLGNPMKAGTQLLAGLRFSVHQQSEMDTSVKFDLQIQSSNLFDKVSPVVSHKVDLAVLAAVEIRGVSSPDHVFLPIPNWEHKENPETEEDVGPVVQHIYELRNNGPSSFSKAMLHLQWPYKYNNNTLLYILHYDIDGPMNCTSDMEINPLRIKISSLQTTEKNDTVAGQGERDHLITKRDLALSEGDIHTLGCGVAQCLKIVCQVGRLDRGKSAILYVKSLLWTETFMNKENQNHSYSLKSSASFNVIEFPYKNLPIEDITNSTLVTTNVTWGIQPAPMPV
integrin αvβ5 (Homo sapiens), sequence (P18084 24-719, chain 2 of 2, further chain): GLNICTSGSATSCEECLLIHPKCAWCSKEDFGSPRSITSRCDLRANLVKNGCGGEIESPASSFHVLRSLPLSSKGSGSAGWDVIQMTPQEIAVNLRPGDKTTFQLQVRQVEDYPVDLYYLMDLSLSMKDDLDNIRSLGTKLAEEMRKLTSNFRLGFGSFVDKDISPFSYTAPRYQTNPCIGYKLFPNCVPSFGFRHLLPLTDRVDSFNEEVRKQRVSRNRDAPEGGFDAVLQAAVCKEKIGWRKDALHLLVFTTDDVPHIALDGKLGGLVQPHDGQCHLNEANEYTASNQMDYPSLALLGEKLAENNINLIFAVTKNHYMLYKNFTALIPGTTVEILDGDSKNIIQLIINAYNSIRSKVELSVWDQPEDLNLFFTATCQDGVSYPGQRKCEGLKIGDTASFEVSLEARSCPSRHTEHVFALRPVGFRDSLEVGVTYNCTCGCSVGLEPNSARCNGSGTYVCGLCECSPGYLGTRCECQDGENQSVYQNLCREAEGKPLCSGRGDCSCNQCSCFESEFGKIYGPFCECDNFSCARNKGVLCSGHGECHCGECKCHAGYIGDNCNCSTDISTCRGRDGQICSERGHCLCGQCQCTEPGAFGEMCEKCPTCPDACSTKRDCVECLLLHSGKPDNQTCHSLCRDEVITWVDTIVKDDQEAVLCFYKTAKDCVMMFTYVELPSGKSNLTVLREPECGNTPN

Row | Substance | IC50 [1] | IC50 [2]
1 | c(RGDyK) | 0.11 nM | –
2 | GRGDS peptide | – | > 5000 nM
